Target: T1, S. cerevisiae Rad51 (S. cerevisiae), P25454
T1 chain: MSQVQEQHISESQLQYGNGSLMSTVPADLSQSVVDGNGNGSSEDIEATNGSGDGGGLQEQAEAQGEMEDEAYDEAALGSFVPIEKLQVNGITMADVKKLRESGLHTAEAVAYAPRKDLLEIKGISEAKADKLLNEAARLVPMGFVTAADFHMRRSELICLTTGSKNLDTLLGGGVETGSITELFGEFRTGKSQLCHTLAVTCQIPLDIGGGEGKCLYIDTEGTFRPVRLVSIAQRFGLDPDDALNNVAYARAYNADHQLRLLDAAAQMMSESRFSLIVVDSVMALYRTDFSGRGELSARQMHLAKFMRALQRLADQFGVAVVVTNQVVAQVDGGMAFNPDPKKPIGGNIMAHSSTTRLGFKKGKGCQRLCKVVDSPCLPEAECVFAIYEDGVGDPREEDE
Experiment: mass photometry; TwoMP instrument; protein diluted to about 8-10 nM decamers in the well; 50 mM Tris-acetate pH 7.5, 50 mM KCl, 5 mM MgCl2
Conditions: remark: other sources report otherwise

B1: S. cerevisiae Rad51, P25454 1-400 (natural protein)
chain: T1 chain
- stoichiometry N: 15

— publication PMC10556141
